Biological target: enzyme acceptor (EA) fragment of β-galactosidase (UniProt P00722 2-1024 = β-galactosidase, limits assumed)
Assay: cell-based or functional assay

Chain of enzyme acceptor (EA) fragment of β-galactosidase (P00722 other isoform, or with tags, fused parts or gaps limits assumed): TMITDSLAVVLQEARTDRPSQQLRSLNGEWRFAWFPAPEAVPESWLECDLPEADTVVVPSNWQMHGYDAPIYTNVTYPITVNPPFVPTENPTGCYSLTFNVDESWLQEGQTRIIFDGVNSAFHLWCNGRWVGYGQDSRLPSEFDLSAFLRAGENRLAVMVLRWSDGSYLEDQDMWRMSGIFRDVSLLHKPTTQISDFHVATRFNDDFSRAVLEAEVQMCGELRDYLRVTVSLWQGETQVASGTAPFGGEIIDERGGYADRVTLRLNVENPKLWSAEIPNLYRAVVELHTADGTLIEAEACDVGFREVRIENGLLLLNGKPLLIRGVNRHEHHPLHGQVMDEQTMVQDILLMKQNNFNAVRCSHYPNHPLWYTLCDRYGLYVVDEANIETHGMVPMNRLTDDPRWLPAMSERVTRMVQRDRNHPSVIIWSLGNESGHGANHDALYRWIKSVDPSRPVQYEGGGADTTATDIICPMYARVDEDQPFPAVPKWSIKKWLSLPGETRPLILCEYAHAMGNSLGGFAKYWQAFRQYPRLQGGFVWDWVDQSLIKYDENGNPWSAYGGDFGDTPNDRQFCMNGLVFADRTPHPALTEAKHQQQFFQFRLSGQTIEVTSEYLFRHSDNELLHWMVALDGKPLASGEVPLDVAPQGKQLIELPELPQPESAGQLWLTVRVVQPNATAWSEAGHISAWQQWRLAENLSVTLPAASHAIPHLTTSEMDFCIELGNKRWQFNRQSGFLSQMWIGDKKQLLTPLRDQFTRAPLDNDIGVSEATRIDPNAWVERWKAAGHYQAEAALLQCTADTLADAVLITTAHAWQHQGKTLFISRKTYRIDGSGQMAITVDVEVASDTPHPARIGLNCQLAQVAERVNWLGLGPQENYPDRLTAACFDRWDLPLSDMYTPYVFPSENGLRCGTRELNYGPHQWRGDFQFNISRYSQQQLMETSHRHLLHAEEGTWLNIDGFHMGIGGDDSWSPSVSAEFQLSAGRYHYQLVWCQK

Binder	complementation activity (β-galactosidase activity after ED + EA incubation) relative to native 90 mer ED 28 (SEQ ID 17), ED 0.0123 nM, 60 min	complementation activity relative to native 90 mer ED 28 (SEQ ID 17), at the same concentration (0.0123 nM)
SLAVVLQRRDWENPGVTQLNRLAAHPPFASWRNSEEA [37 mer ED (SEQ ID NO 1), short enzyme donor fragment of β-galactosidase]	45%	–
SLAVVLQRRDWENPGVTQLNKLAAHPPFASWRNSEEARTDCPSQQL [46 mer ED (SEQ ID NO 10)]	–	72%

From patent US20030219848A1 (DISCOVERX, published 2003)
